Laboratory results taken from the supplement of paper PMC9876800.

Tested on: peptide library, one residue held at a place counted from the S/T acceptor
Assay: relative phosphorylation of the sub-library (ratio to the mean residue at this position); higher = residue favoured
Conditions: human
Procedure, shortened: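 Purified recombinant kinases (human or orthologue constructs) were incubated in 384-well plates with biotinylated degenerate peptide sub-libraries, each fixing one residue at one position around a central Ser/Thr. Peptides were at 50 μM, with 50 μM ATP spiked with γ-32P-ATP, for 90 min under kinase-specific conditions. Spots on streptavidin membranes were phosphorimaged and quantified by densitometry. Relative sub-library phosphorylation is a ratio to the mean residue at that position.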

ACVR1, construct: aa175-end, sequence (Q04771 175-509, looked up): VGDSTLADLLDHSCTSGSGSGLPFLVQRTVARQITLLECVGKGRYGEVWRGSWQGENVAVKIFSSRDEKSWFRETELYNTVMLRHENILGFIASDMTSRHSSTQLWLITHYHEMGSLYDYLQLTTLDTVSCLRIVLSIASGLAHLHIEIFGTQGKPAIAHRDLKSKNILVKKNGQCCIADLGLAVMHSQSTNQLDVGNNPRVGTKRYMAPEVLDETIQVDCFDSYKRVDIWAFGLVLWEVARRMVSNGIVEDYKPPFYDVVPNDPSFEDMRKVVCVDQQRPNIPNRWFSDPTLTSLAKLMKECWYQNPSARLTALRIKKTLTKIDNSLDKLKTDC
CDK1, construct: Full length, sequence (P06493 whole entry, looked up): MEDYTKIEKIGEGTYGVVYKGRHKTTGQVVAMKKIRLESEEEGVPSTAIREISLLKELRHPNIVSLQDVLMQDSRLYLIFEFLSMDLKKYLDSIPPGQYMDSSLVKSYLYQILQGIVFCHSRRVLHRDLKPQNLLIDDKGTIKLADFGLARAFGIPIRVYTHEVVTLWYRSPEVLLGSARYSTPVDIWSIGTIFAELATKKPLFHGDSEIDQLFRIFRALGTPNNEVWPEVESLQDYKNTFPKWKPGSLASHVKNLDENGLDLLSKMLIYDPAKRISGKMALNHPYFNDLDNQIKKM
CDC7, construct: Full length, sequence (O00311 whole entry, looked up): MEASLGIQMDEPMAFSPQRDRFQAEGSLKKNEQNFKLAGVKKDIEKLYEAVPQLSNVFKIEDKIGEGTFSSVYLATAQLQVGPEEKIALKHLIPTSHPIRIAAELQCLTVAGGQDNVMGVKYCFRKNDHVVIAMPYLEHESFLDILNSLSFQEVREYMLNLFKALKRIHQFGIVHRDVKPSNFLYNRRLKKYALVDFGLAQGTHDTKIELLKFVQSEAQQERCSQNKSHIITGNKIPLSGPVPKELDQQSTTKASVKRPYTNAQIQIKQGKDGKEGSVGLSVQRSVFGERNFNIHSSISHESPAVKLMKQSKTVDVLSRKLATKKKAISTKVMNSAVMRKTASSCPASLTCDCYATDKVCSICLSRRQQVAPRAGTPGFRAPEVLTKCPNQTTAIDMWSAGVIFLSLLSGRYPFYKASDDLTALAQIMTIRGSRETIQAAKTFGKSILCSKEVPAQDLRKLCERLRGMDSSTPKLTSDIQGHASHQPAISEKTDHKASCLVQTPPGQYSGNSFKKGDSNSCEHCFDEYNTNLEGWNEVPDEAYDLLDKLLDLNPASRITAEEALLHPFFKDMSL

CDC7, construct: Full length (from UniProt O00311)
relative phosphorylation
Conditions | at +1 | at +2 | at +3 | at +4 | at -1 | at -2 | at -3 | at -4 | at -5
A fixed | 0.668 | 1.31 | 0.87 | 0.939 | 1.13 | 1.05 | 0.87 | 0.99 | 1.26
D fixed | 2.92 | 0.854 | 2.1 | 0.91 | 0.674 | 1.19 | 1.06 | 1.27 | 0.99
E fixed | 4.74 | 0.689 | 1.03 | 0.832 | 0.819 | 1.13 | 1.15 | 1.04 | 0.856
F fixed | 0.577 | 0.712 | 1.35 | 1.04 | 1.04 | 0.895 | 0.91 | 0.949 | 0.988
G fixed | 0.629 | 1.69 | 1.37 | 1.02 | 1.11 | 0.778 | 1 | 0.929 | 0.934
H fixed | 0.513 | 0.887 | 1.02 | 1.08 | 1 | 0.787 | 0.836 | 0.977 | 1.09
I fixed | 0.549 | 0.834 | 0.864 | 1.01 | 0.485 | 1.07 | 0.849 | 0.82 | 0.93
K fixed | 0.444 | 0.596 | 0.561 | 0.769 | 1.31 | 0.72 | 0.802 | 0.909 | 0.954
L fixed | 0.563 | 1.02 | 0.874 | 0.984 | 0.982 | 1.4 | 0.933 | 0.943 | 0.926
M fixed | 0.765 | 0.893 | 0.676 | 0.932 | 1.18 | 1.11 | 0.894 | 0.921 | 0.95
N fixed | 0.691 | 1.13 | 0.897 | 0.878 | 0.884 | 0.715 | 0.888 | 0.955 | 0.979
P fixed | 0.459 | 1.84 | 0.945 | 1.15 | 1.01 | 1.64 | 1.06 | 1.11 | 0.914
Q fixed | 1.31 | 0.756 | 0.694 | 0.782 | 0.781 | 0.749 | 0.848 | 0.866 | 0.77
R fixed | 0.472 | 0.816 | 0.506 | 0.723 | 1.11 | 1.06 | 1.65 | 0.907 | 1.06
V fixed | 0.612 | 0.737 | 0.761 | 0.894 | 0.671 | 0.988 | 0.856 | 0.935 | 0.943
W fixed | 0.567 | 1.44 | 1.23 | 1.48 | 1.59 | 0.854 | 1.33 | 1.36 | 1.28
Y fixed | 0.523 | 0.796 | 1.25 | 1.58 | 1.23 | 0.884 | 1.06 | 1.12 | 1.18
pThr fixed | 2.38 | 0.801 | 1.41 | 1.34 | 0.583 | 1.12 | 1.46 | 1.13 | 0.831
pTyr fixed | 0.631 | 0.537 | 0.792 | 1.15 | 0.684 | 0.717 | 1.06 | 0.937 | 0.844

ACVR1, construct: aa175-end (from UniProt Q04771)
relative phosphorylation
Conditions | at +1 | at +2 | at +3 | at +4 | at -1 | at -2 | at -3 | at -4 | at -5
A fixed | 0.713 | 0.98 | 0.912 | 0.81 | 0.74 | 0.525 | 0.897 | 0.886 | 1.13
D fixed | 1.5 | 1.84 | 1.47 | 1.69 | 1.48 | 1.93 | 1.51 | 1.64 | 1.22
E fixed | 4.11 | 1.99 | 1.81 | 1.76 | 1.68 | 6.6 | 1.78 | 1.44 | 1.15
F fixed | 0.752 | 0.713 | 0.962 | 1.01 | 0.857 | 0.467 | 0.944 | 0.88 | 1.08
G fixed | 0.737 | 1.39 | 0.909 | 0.972 | 0.515 | 0.715 | 1.22 | 1.15 | 1.12
H fixed | 0.787 | 1.15 | 0.932 | 0.918 | 1.04 | 0.55 | 1.03 | 0.953 | 1.03
I fixed | 0.87 | 0.581 | 0.762 | 0.804 | 0.985 | 0.511 | 0.885 | 0.946 | 0.896
K fixed | 0.382 | 0.709 | 0.53 | 0.676 | 0.572 | 0.406 | 0.651 | 0.77 | 0.938
L fixed | 0.728 | 0.616 | 0.856 | 0.738 | 1.35 | 0.678 | 0.899 | 0.958 | 0.861
M fixed | 0.795 | 0.683 | 0.97 | 0.955 | 1.62 | 0.89 | 1.02 | 0.94 | 0.964
N fixed | 0.771 | 0.927 | 1.04 | 1.01 | 1 | 0.714 | 1.12 | 0.803 | 0.948
P fixed | 0.375 | 1.02 | 1.1 | 0.976 | 0.49 | 0.404 | 0.937 | 0.872 | 0.91
Q fixed | 0.726 | 0.876 | 0.857 | 1.01 | 0.846 | 0.739 | 0.775 | 0.791 | 0.739
R fixed | 0.453 | 0.868 | 0.647 | 0.714 | 0.673 | 0.531 | 0.781 | 0.769 | 0.902
V fixed | 1.19 | 0.638 | 0.847 | 0.783 | 0.975 | 0.462 | 0.732 | 0.834 | 0.954
W fixed | 1.04 | 0.82 | 1.26 | 1.26 | 0.903 | 0.458 | 0.864 | 1.23 | 1.18
Y fixed | 1.07 | 1.19 | 1.14 | 0.927 | 1.27 | 0.429 | 0.972 | 1.15 | 0.997
pThr fixed | 2.36 | 1.57 | 1.05 | 1.59 | 1.04 | 1.8 | 1.41 | 1.05 | 1.06
pTyr fixed | 2.25 | 1.4 | 1.32 | 1.25 | 1.37 | 0.678 | 1.37 | 1.22 | 1.17

CDK1, construct: Full length (from UniProt P06493)
relative phosphorylation
Conditions | at +1 | at +2 | at +3 | at +4 | at -1 | at -2 | at -3 | at -4 | at -5
A fixed | 0.334 | 1.04 | 0.598 | 0.854 | 0.927 | 1 | 0.841 | 0.996 | 1.04
D fixed | 0.205 | 0.814 | 0.505 | 0.941 | 1.21 | 1.03 | 1.26 | 1.56 | 1.55
E fixed | 0.231 | 0.724 | 0.425 | 0.786 | 0.927 | 0.898 | 1.25 | 1.38 | 1.36
F fixed | 0.187 | 0.68 | 0.396 | 0.78 | 0.639 | 0.853 | 0.825 | 0.825 | 0.882
G fixed | 0.717 | 1.13 | 0.852 | 1.1 | 1.43 | 1.29 | 1.31 | 1.14 | 1.4
H fixed | 0.244 | 1.18 | 0.907 | 1.23 | 0.744 | 0.87 | 1.01 | 0.908 | 0.893
I fixed | 0.21 | 0.694 | 0.346 | 0.758 | 0.352 | 0.669 | 0.663 | 0.654 | 0.751
K fixed | 0.331 | 1.86 | 5.37 | 1.83 | 1.65 | 0.597 | 1.01 | 0.973 | 1.11
L fixed | 0.228 | 0.752 | 0.403 | 0.792 | 0.62 | 0.89 | 0.743 | 0.69 | 0.799
M fixed | 0.24 | 0.839 | 0.423 | 0.913 | 0.85 | 1.04 | 0.761 | 0.806 | 0.759
N fixed | 0.299 | 1.19 | 0.838 | 1.12 | 1.27 | 0.803 | 1.11 | 1.01 | 0.944
P fixed | 12.4 | 1.04 | 0.999 | 1.08 | 1.61 | 3.11 | 1.84 | 1.49 | 1.16
Q fixed | 0.292 | 1.16 | 0.798 | 1.02 | 1.22 | 0.856 | 0.976 | 0.922 | 0.86
R fixed | 0.324 | 1.64 | 2.82 | 1.21 | 1.4 | 0.649 | 0.921 | 1.02 | 0.934
V fixed | 0.295 | 0.656 | 0.413 | 0.695 | 0.483 | 0.687 | 0.705 | 0.586 | 0.718
W fixed | 0.213 | 0.769 | 0.485 | 0.973 | 0.758 | 0.935 | 0.883 | 1.05 | 0.852
Y fixed | 0.202 | 0.842 | 0.415 | 0.924 | 0.897 | 0.825 | 0.893 | 0.985 | 0.99
pThr fixed | 0.851 | 1.38 | 1.59 | 0.946 | 0.621 | 1.16 | 1.3 | 1.43 | 1.74
pTyr fixed | 0.777 | 0.913 | 1.36 | 1.08 | 0.885 | 1.28 | 1.48 | 1.42 | 1.66
